# Reference: patent US20230121197A1, “ANTIBODIES SPECIFICALLY BINDING THE CARBOXYMETHYLATED CATALYTIC SUBUNIT OF PROTEIN PHOSPHATASE 2A” (Medizinische Universität Wien, priority 2020, published 2023)
# T1: PP4c C-terminal peptide meL307, ac-PSKKPVADYFL-CH3 (α-carboxymethylated) (human, SMILES …)
# T1 construct: also called mePP4c; PP4 Me
# T1 peptide: Ac-PSKKPVADYFL-OMe
# T2: mouse HA PP4c, carboxymethylated (immunoprecipitated from NIH3T3 cells) (mouse) (UniProt P97470)
# T2 sequence (C-terminal leucine α-carboxyl methyl ester (cellular methylation), looked up): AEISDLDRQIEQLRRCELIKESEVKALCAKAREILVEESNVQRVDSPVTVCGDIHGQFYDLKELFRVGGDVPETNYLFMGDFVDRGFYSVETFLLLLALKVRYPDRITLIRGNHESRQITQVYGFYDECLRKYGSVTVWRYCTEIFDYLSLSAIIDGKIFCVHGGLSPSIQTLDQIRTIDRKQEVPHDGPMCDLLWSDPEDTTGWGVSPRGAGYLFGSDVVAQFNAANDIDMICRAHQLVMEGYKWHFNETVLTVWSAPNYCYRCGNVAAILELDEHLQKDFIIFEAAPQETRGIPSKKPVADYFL
# How the values were obtained:
# [1] = molecular target: α-carboxymethylated PP2Ac (Homo sapiens, UniProt P67775); experiment: IHC specificity validation (NaOH treatment of slides); set-up: NaOH treatment to chemically remove the methyl group from the methylated PP2A-C; from tissue; host or cells: de-paraffinized tissue slides; settings: slides incubated in 200 mM NaOH
# Experimental: Immunohistochemical staining was performed on the DAKO Autostainer (DAKO, Carpinteria, Calif.) using Envision+ or liquid streptavidin-biotin and diaminobenzadine (DAB) as the chromogen. De-paraffinized sections were labeled with mouse monoclonal antibody 7C10-C5 (1:200) overnight at 4 C. Microwave 10 mM Tris HCl, pH9 containing 1 mM EDTA epitope retrieval was used prior to staining. Appropriate negative (no primary antibody) and positive controls (pancreas) were stained in parallel with each set of slides studied. Peptide competition studies were performed using 2 peptides ([…]*) (SEQ ID NO:115) differing in the methylation status at position L (marked with a *); FIG. 13E: Peptides were incubated at ambient temperature for 60 mins at 10-1000× molar ratios before being applied to the slide. FIG. 13F: Before being stained, slides were incubated in freshly made 200 mM NaOH for 10 mins at 4° C. and then neutralized by several washes in TBST.
# Stained slides were scanned using an APERIO AT2 (Leica) and the digital images imported into QuPath (Bankhead et al., 2017). TMA cores were analyzed for percentage of cells staining and intensity. In FIGS. 13E and F, higher visibility of the dark cell nuclei indicates weaker α-carboxymethylated PP2Ac staining.
# [2] = molecular target: T1, PP4c C-terminal peptide meL307, …; experiment: SPR (Biacore T200), antibody captured, peptide 50-800 nM as analyte, steady state analysis, 25 °C; SPR steady state; antibody captured at 50 µg/ml, PP4 Me peptide 50-800 nM as analyte
# Experimental: The differential affinity of anti-carboxymethylated PP2Ac antibodies, 7C10-C5 and 2A10, to carboxymethylated PP2A catalytic subunit versus noncarboxymethylated PP2A catalytic subunit was determined by surface plasmon resonance (SPR) on a Biacore T200 (GE Healthcare) at the Core Facility Biomolecular & Cellular Analysis (University of Natural Resources and Life Sciences Vienna BOKU). The affinity of 7C10-C5 for carboxymethylated and noncarboxymethylated catalytic subunit of PP4 (PP4c), a PP2A-related phosphatase, was also determined.
# Series S Sensor Chip CM5 (GE Healthcare, 10296958) Flow cells (e.g. Flow cells 3 and 4 for the data shown in Table 5 and FIG. 32) were coated with 30 μg/mL anti-mouse IgG antibody (in immobilization buffer) using the mouse antibody capture kit (GE Healthcare, BR-1008-38, Lot 10294578) via amine coupling according to the manufacturer's protocol (i.e. https://www.cytivalifesciences. com/en/us/shop/protein-analysis/spr-lab el-free-analysis/capture-reagents/mouse-antibody-capture-kit-p-05986). The immobilisation levels obtained were 11620.2 RU (Flow cell 1), 10836.5 RU (Flow cell 2), 11605.9 RU (Flow cell 3) and 11333.9 RU (Flow cell 4), and thus were within the specifications. […]
# SPR experiments were performed with the BiacoreT200 instrument (Cytiva). […] The sensorgrams obtained were analyzed with BiacoreT200 Evaluation Software (version 3.1).
# [3] = molecular target: T2, mouse HA PP4c, carboxymethylated (immunoprecipitated from NIH3T3 cells) (mouse); experiment: Western blot quantification, signal normalized to HA level, HA-PP2A set to 1, N=3
# Sequence of α-carboxymethylated PP2Ac (P67775 whole entry): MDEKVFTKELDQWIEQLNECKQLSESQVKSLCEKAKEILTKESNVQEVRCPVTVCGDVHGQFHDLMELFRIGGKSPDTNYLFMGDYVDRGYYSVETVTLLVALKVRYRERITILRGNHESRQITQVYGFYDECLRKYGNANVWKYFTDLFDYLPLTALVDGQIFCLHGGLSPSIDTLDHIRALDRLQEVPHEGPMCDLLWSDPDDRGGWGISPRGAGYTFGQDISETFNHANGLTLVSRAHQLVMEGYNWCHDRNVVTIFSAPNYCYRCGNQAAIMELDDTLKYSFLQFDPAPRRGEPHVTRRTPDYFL
molecule,measurement,setting,value
"7C10-C5: α-carboxymethylation specific mouse monoclonal IgG1 antibody from single clone hybridoma 7C10-C5 (DSM ACC3350) (antibody, Amino acid sequence of the recombinant 7C10-C5 heavy chain; Amino acid sequence of the recombinant 7C10-C5 light chain) heavy: MYRMQLLSCIALSLALVTNSDVQLQESGPGLVKPSQSLSLTCSVTGYSITSGYYWNWIRQFPGNKLEWMGYISYDGSNNYNPSLKNRISITRDTSKNQFFLKLNSVTTEDTATYYCAGRFAYWGQGTLVTVSAAKTTAPSVYPLAPVCGDTTGSSVTLGCLVKGYFPEPVTLTWNSGSLSSGVHTFPAVLQSDLYTLSSSVTVTSSTWPSQSITCNVAHPASSTKVDKKIEPRGPTIKPCPPCKCPAPNLLGGPSVFIFPPKIKDVLMISLSPIVTCVVVDVSEDDPDVQISWFVNNVEVHTAQTQTHREDYNSTLRVVSALPIQHQDWMSGKEFKCKVNNKDLPAPIERTISKPKGSVRAPQVYVLPPPEEEMTKKQVTLTCMVTDFMPEDIYVEWTNNGKTELNYKNTEPVLDSDGSYFMYSKLRVEKKNWVERNSYSCSVVHEGLHNHHTTKSFSRTPGK light: MDMRVPAQLLGLLLLWLSGARCDVLMTQTPLSLPVSLGDQASISCRSSQSIVHSNGNTYLEWYLQKPGQSPKLLIYKVSNRFSGVPDRFSGSGSGTDFTLKINRVEAEDLGVYYCFQGSHVPWTFGGGTKLEIKADAAPTVSIFPPSSEQLTSGGASVVCFLNNFYPKDINVKWKIDGSERQNGVLNSWTDQDSKDSTYSMSSTLTLTKDEYERHNSYTCEATHKTSTSPIVKSFNRNEC",IHC staining after chemical removal of the methyl group,[1],diminished staining upon treatment with NaOH
"7C10-C5 monoclonal antibody (antibody, V domains shown, Used as hybridoma culture supernatant (ELISA, Western blot, IHC) or at 50 µg/mL (SPR); also called 7C10 X63; clone 7C10-C5) VH: DVQLQESGPGLVKPSQSLSLTCSVTGYSITSGYYWNWIRQFPGNKLEWMGYISYDGSNNYNPSLKNRISITRDTSKNQFFLKLNSVTTEDTATYYCAGRFAYWGQGTLVTVSA VL: DVLMTQTPLSLPVSLGDQASISCRSSQSIVHSNGNTYLEWYLQKPGQSPKLLIYKVSNRFSGVPDRFSGSGSGTDFTLKINRVEAEDLGVYYCFQGSHVPWTFGGGTKLEIK",Kd,[2],132 nM
same,7C10/HA blot signal relative to HA-PP2A = 1,[3],0.01 7C10/HA
